Reference: patent US20250320480A1, “Immunoglobulin Cleaving Enzyme” (priority 2021, published 2025)
“Also recorded” adds a separate entry of the source.

What was measured:
Type in all cases: biochemical
rat IgG = experiment: Immunoglobulin specificity on SDS-PAGE: rat IgG; settings: o/n at 37° C.
Description: (§1) FIG. 11. Specificity of IdeSork2.0. IdeSork2.0 was mixed with different antibodies and incubated o/n at 37° C. before analysis on SDS-PAGE.
(§2) Various antibodies and antibody based therapeutics were incubated with Xork, IdeS, or IdeZ (1:40 ratio) for 1 hour at 37° C. in PBS, with substrate concentrations ranging between 2-5 mg/mL, before being analyzed on SDS-PAGE. For kinetic studies, a substrate level of 2-200 μM IVIG was used during 10 min at 37° C. before being analyzed on a UHPLC system.

cow IgG = experiment: Immunoglobulin specificity on SDS-PAGE: cow IgG
Description: as §2

IgG in human serum = experiment: Activity of IgG hydrolases in human serum; settings: serum (100%), E:S 1:40, 0-4 hours at 37° C., non-reduced SDS-PAGE
Description: FIG. 15. Activity of IgG hydrolases in human serum. Serum (100%) was spiked with IgG hydrolases and activity was analyzed over time using non-reduced SDS-PAGE.
For serum activity assays, an E: S ratio of 1:40 (assuming 10 mg/mL IgG in serum) was used, incubating 0-4 hours at 37° C. before analysis on a non-reduced SDS-PAGE. All enzymes were supplied by Genovis AB.

IgG = experiment: Optimal conditions, Box-Behnken design (pH, NaCl, temperature)
Description: FIG. 7. IdeSork2.0 optimal conditions. The optimal buffer composition for IdeSork2.0 was determined using a Box-Behnken experimental design, measuring the impact of pH, NaCl and temperature. Output was measures as percentage hydrolysis of IgG.
The optimal conditions for IdeSORK2.0 were assessed using a Box-Behnken experimental design to assess multiple factors and their inter-dependence. […] The enzymatic reaction is mainly driven by the substrate concentration (high concentration favours the reaction), while the enzyme concentration is secondary. This can also be seen as a low percentage IgG not being readily hydrolyzed even after a pro-longed incubation (FIG. 9).
To better understand the optimal conditions needed for the enzyme to exert its activity, a Box-Behnken design was employed for the experiment. Addition of NaCl (0-400 mM), pH (5.5-8.5), [enzyme], [substrate], time, and temperature were parameters investigated. Unless otherwise noted, all experiments were conducted in TBS at an enzyme: substrate ratio of 1:20, for 1 hour at 37° C.

guinea pig IgG = experiment: Immunoglobulin specificity on SDS-PAGE: guinea pig IgG; settings: o/n at 37° C.
Description: as §1, §2

mouse IgG2b = mouse IgG2b (Mus musculus, UniProt P01867); experiment: Immunoglobulin specificity on SDS-PAGE: mouse IgG2b; settings: 37° C., listed as IdeSork2.0
Chain of mouse IgG2b (P01867 1-335 isoform P01867-2): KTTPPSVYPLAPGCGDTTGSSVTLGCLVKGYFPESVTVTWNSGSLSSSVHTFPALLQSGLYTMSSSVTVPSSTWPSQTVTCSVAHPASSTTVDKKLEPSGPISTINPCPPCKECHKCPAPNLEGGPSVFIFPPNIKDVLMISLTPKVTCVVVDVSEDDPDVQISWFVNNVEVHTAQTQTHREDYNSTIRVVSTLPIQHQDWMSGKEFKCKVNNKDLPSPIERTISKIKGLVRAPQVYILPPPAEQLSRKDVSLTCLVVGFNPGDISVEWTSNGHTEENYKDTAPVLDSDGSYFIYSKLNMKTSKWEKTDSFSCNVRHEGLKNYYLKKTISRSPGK
Description: (§3) FIG. 3. Specificity of IdeSork2.0. IdeSork2.0 was mixed with different antibodies and incubated o/n at 37° C. before analysis on SDS-PAGE. The enzyme itself is noted with an arrow. […] Mouse IgG1, mouse IgG2b and human IgA were not affected by IdeSork2.0.
as §2

IgG1 = experiment: Comparison to other IgG proteases: IgG1; settings: SDS-PAGE
Description: FIG. 10. IdeSork2.0 is having a similar activity compared to IdeS and IdeZ. To investigate if IdeSork2.0 is hydrolyzing IgG in a similar way as IdeS and IdeZ they were all incubated against IgG1 and IgG2 and analyzed on SDS-PAGE. The cleavage patterns look identical, with both IdeSork2.0 and IdeS having less activity towards IgG2.
To further look into the activity of IdeSORK2.0, its activity was compared with IdeS and IdeZ against both IgG1 and IgG2.

pig IgG = experiment: Immunoglobulin specificity on SDS-PAGE: pig IgG; settings: o/n at 37° C.
Description: as §1, §2

mouse IgG2a = mouse IgG2a (Mus musculus, UniProt P01863); experiment: Immunoglobulin specificity on SDS-PAGE: mouse IgG2a; settings: 37° C.
Chain of mouse IgG2a (P01863 whole entry): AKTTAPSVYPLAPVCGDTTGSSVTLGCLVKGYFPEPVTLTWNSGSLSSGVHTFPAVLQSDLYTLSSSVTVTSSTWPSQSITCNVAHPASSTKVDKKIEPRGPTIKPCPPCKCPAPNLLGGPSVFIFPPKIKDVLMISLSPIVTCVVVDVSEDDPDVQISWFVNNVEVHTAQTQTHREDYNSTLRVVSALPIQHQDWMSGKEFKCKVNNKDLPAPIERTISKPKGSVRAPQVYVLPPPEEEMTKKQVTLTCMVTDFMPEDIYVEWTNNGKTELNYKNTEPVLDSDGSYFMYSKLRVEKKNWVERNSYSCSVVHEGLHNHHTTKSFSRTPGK
Description: as §3, §2

horse IgG = experiment: Immunoglobulin specificity on SDS-PAGE: horse IgG; settings: o/n at 37° C.
Description: as §1, §2

human IgG = experiment: Immunoglobulin specificity on SDS-PAGE: human IgG and IgG Fc fusion proteins; settings: for Hydrolysis of human IgG and IgG Fc fusion proteins: incubated with different antibodies at 37° C., SDS-PAGE
Description: as §3, §2

B1: IdeSORK2.0: SEQ ID NO: 2 (N terminal 312 amino acids of IdeSORK) with added N terminal methionine and C-terminal His6; 319 amino acids (protein)
chain: MSKRKLLKKIEKKDTSSVLTQKKQTKTLWADGVQVDDKDFKPSTENFGTNYLAAEYGIGKGYYDINKKFDGTDDDLCSGVVAANQLHWWLDRNKDYIEKYRQQSKDNGVTIGNTDIFELNKLHDEDQSNFFDFIKKSFGNKFLQPERLLNMYINGYGYLTSQDKAKTSQPSPSKLNFFQKVFKNNLLTDKTPINDIDEFSSQTKNALQNHKVLAVSFASIKNRGLGHVVTVWGADFDENGKVVALYVTDSDDRSKNIGNAKLGMKKLRIEVSAQDSSTIKLTGFEDKNSGGSLRHLYSLSTGEQIWKKYFEETHHHHHH
modifications: (IdeSORK2.0) Protein of SEQ ID NO 2 engineered to include an additional N terminal methionine and a C-terminal protein purification tag - His6
Rat IgG
  Activity on rat IgG: only showed activity against horse and guinea pig IgG; also recorded: no visible effect
Cow IgG
  Activity on cow IgG: only showed activity against horse and guinea pig IgG
IgG in human serum
  Immunoglobulin cleavage activity in the presence of human serum: demonstrated immunoglobulin cleavage activity
IgG
  NaCl optimum: 0 mM
  NaCl tolerated without a significant drop in activity: up to 200 mM
  Requirement for co-factors or reducing agents: no requirement for co-factors or reducing agents
  pH in which highly active: 7.0-8.5
  pH optimum: 7.5
IgG; 37° C. versus room temperature
  Effect of temperature on activity: improved when incubated at 37 °C as compared to room temperature
IgG; >90% activity
  NaCl range: 0 to 200 mM
  pH range: 6.5-8.5
Guinea pig IgG
  Activity on guinea pig IgG: showed activity
Mouse IgG2b
  Activity towards mouse IgG2b: not affected
IgG1
  Hydrolysis of IgG1: able to hydrolyze
Pig IgG
  Activity on pig (porcine) IgG: only showed activity against horse and guinea pig IgG; also recorded: no visible effect
Mouse IgG2a
  Activity towards mouse IgG2a: active
Mouse IgG2a; listed as IdeSork2.0
  Activity towards mouse IgG2a: could be hydrolyzed
Horse IgG
  Activity on horse IgG: showed activity
Human IgG
  Hydrolysis of monoclonal IgG4: can also hydrolyze
  Hydrolysis of polyclonal IgG (e.g. IVIG): near complete hydrolysis
  Hydrolysis of human IgG and IgG Fc fusion proteins: hydrolyzing all tested human IgGs and IgG Fc fusion proteins
Human IgG; IgG1 versus IgG2
  Preference between human IgG subclasses: slight preference for IgG1 over IgG2
Human IgG; human antibodies with altered hinge
  Effect of alterations of the hinge region (e.g. LALA-sequence) on activity: did not affect the activity
Human IgG; listed as IdeSork2.0
  Hydrolysis of human IgG and IgG Fc fusion proteins: hydrolyzed
